Test results from the supplement of paper PMC10567573.

B1: PLAGL1 (parent)
chain: EKPPSGTKEKKHQCDHCERCFYTR
B2: RIPK4 (parent)
chain: AAWQGHLPIVKLLAKQPGVSVNAQ

Variants of: B1
Assay: protein stability index of a GFP-peptide fusion (GPS, HEK-293T) (PSI 1-6); higher = more stable
Settings: c terminus: a fixed tail appended
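Also: lentivirally expressed fusions sorted by FACS into six bins by GFP to DsRed ratio, PSI derived from sequencing read proportions per bin multiplied by bin number.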

Protein stability index, by site and new letter:
R24: F 4.35 | H 4.67 | N 4.55 | S 4.33 | M 4.68 | Y 3.96 | D 5.07 | I 4.37 | G 4.24 | A 4.68 | K 4.74 | E 4.67 | L 4.29 | Q 5.28 | C 4.61 | V 4.07 | P 4.9 | W 4.29 | T 4.93
F21: G 4.32 | M 4.75 | T 4.26 | I 4.52 | R 4.15 | L 4.08 | C 3.88 | Y 4.37 | E 4.11 | N 4.33 | Q 5.02 | H 3.51 | D 4.34 | A 4.06 | K 4.39 | P 3.75 | V 3.95 | S 4.22
T23: S 3.79 | F 3.97 | G 4.1 | R 3.4 | L 4.64 | P 3.64 | N 2.86 | Y 3.83 | C 4.64 | E 5.09 | M 4.34 | I 4.03 | Q 4.01 | W 4.12 | D 4.63 | A 3.89 | V 4.11 | K 3.99 | H 3.86
C20: W 2.35 | Y 2.66
Y22: D 4.58 | Q 4.21 | A 4.25 | L 4.35 | W 3.18 | F 3.35 | S 4.17 | I 4.17 | T 3.89 | M 4.37 | R 4.3 | G 4.03 | P 4.05 | V 3.69 | C 4.84 | E 4.67 | H 4.13 | K 4.45 | N 4.22

Variants of: B2
Assay: as above
Settings: c terminus: a fixed tail appended

Protein stability index, by site and new letter:
L13: Q 4.64 | D 3.82 | K 2.86 | W 3.24 | C 2.86 | P 3.55 | F 2.39 | S 2.85 | Y 2.94 | A 2.9 | H 2.5 | T 2.16 | I 2.82 | E 4.25 | R 3.09 | V 2.88 | N 3.81
I9: T 3.02 | G 2.14 | F 2.36 | W 2.63 | E 2.55 | Q 2.78 | S 2.83 | P 3.45 | A 3.49 | C 3.1 | Y 2.45 | H 2.47 | N 1.79 | V 2.64
Q16: I 1.42 | K 2.77 | H 2.97 | P 2.27 | C 2 | A 2.54 | M 2.22 | D 3.25 | E 3.78 | G 2.93 | L 2 | N 2.95
L12: D 4.08 | T 3.25 | S 3.75 | R 3.56 | Q 3.02 | Y 3.14 | C 2.75 | G 3.67 | P 2.71 | I 2.4 | H 3.33 | V 2.35 | N 3.59 | W 1.33 | F 2.45 | M 1.88 | A 3.04 | E 4.1
P8: D 2.25 | C 3.63 | S 1.78 | Q 1.85 | H 2.08 | G 1.8 | K 1.07 | N 1.78 | F 3.42 | A 1.63
K11: M 2.13 | Q 2.35 | P 3.07 | E 3.62 | S 1.58 | A 1.76 | N 2.4 | I 1.4 | C 3.38 | V 1.84 | G 3 | Y 1.94 | H 2.15 | R 1.72 | T 2.1
W3: Q 3.5 | G 2.91 | D 3.85 | T 3.56 | V 2.49 | S 3.65 | Y 2.42 | F 2.97 | A 3.2 | K 3.21 | I 3.07 | C 3.78 | P 3.82 | R 2.98 | H 3.06 | L 2.42 | M 3.88 | N 3.29 | E 3.63
A14: N 3.07 | S 2.72 | I 1.67 | R 2.5 | C 1.33 | H 2.13 | Y 2.09 | K 3.17 | F 1.57 | D 3.75 | W 1.33 | P 3.28 | Q 2.14 | G 2.72 | M 2.07 | V 1.87 | E 2.56 | T 2.42
L7: T 2.29 | S 2.8 | Y 2.05 | W 1.81 | P 3.21 | D 3.03 | E 3.31 | F 2.71 | M 2.33 | C 2.21 | N 3.36 | I 2.76 | A 2.1 | R 5.04 | Q 3.55 | V 2.65 | G 3.01
K15: F 2.26 | H 2.43 | N 3.56 | L 1.82 | G 2.58 | E 2.73 | W 2.04 | P 1.28 | S 2.16 | R 2.06 | C 1.67 | I 2.82 | T 2.88 | Q 1.81 | D 3.15 | A 2.56 | M 2.11
A1: S 2.56 | D 3.41 | G 1.34 | T 2.22 | C 2.18 | F 3.12 | L 1.05 | N 2.35 | I 1.95 | P 2.81 | E 2.24 | K 2.25 | H 2.77 | M 1.98
V10: A 2.33 | I 1.92 | G 2.36 | K 2.23 | Q 2.56 | H 2.34 | Y 3.72 | W 3.69 | N 2.1 | D 2.74 | R 2.37 | C 2.38 | F 2.16 | P 2.75 | E 3.71 | M 2.64 | T 2.78 | S 2.72 | L 1.61
H6: V 4 | P 2.67 | D 2.98 | F 1.41 | Y 1.1 | Q 2.76 | N 2.2 | S 1.84 | L 1.45 | M 1.86 | T 2.32 | E 2.81 | A 2.54 | I 2.65
A2: S 2.25 | G 2.27 | Q 2.62 | R 2.72 | F 2.15 | M 2.73 | P 3.69 | D 3.76 | T 3.11 | E 2.69 | L 2.38 | K 2.37 | C 2.19 | I 1.66 | N 3.16 | H 2.8 | Y 2.12
Q4: Y 1.51 | F 1.24 | M 1.94 | L 1.32 | T 2.65 | S 2.18 | H 3.18 | C 3.15 | A 1.93 | P 3.34 | E 2.45 | I 1.34 | D 2.62 | V 1.7 | G 2.56 | N 2.06 | R 1.89 | W 1.61
G5: M 2.37 | P 2.56 | E 2.83 | S 2.2 | Q 2.44 | I 1.81 | R 2.36 | W 1.71 | N 3.7 | L 1.52 | C 2.69 | K 1.97 | D 2.94 | T 2.69 | H 1.86 | V 2.58 | A 2.02 | Y 2.89
